Experimental data taken from patent US20250137008A1 (UNIVERSITY OF GLASGOW, published 2025).

T1: KAT1 voltage sensor domain (kVSD) (UniProt Q39128 1-200, limits assumed)
T1 construct: domain: voltage sensor domain (VSD); Nub-X prey in mbSUS; rBiFC partner; also called KAT1 VSD; VSD of KAT1
T1 sequence (looked up): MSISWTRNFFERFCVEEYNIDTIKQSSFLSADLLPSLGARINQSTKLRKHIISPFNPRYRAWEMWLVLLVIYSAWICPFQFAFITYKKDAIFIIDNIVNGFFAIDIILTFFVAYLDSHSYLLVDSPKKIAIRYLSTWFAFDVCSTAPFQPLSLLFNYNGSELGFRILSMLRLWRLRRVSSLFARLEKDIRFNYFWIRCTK

B1: full-length GORK channel (GORK-Cub bait fusion) (other)
chain: MGRLRRRQEIIDHEEEESNDDVSSRRGKLSLAETFRWLDSSEHRRIETDGHNDYKYIIHPKNRWYKAWEMFILVWAIYSSLFTPMEFGFFRGLPERLFVLDIVGQIAFLVDIVLQFFVAYRDTQSYRTVYKPTRIAFRYLKSHFLMDFIGCFPWDLIYKASGKHELVRYLLWIRLFRVRKVVEFFQRLEKDTRINYLFTRILKLLFVEVYCTHTAACIFYYLATTLPPEQEGYTWIGSLKLGDYSYENFREIDLWKRYTTALYFAIVTMATVGYGDIHAVNLREMIFVMIYVSFDMVLGAYLIGNVTALIVKGSNTERFRDKMNDLISFMNRKKLGRDLRSQITGHVRLQYDSHYTDTVMLQDIPASIRAKIAQLLYLPYIKKVPLFKGCSTEFINQIVIRLHEEYFLPGEVITEQGNVVDHLYFVCEGLLEALVTKTDGSEESVTLLGPHTSFGDISIICNISQPFTVRVCELCHLLRLDKQSFSNILEIYFHDGRTILNNIMEEKESNDRIKKLESDIVIHIGKQEAELALKVNSAAFQGDFYQLKSLIRSGADPNKTDYDGRSPLHLAACRGYEDITLFLIQEGVDVNLKDKFGHTPLFEAVKAGQEGVIGLLVKEGASFNLEDSGNFLCTTVAKGDSDFLKRLLSSGMNPNSEDYDHRTPLHVAASEGLFLMAKMLVEAGASVISKDRWGNSPLDEARLCGNKKLIKLLEDVKNAQSSIYPSSLRELQEERIERRKCTVFPFHPQEAKEERSRKHGVVVWVPSNLEKLIVTAAKELGLSDGASFVLLSEDQGRITDIDMISDGHKLYMISDTTDQT
notes: Full-length channel expressed in yeast as a Cub bait fusion (mbSUS) and in vivo as an rBiFC partner; also called full-length GORK channel Y-Cub fusion; Guard cell Outward Rectifying Potassium (K+) channel
B2: kVSD N-terminus (soluble) (other, UniProt Q39128 1-63, looked up)
chain: MSISWTRNFFERFCVEEYNIDTIKQSSFLSADLLPSLGARINQSTKLRKHIISPFNPRYRAWE
notes: domain: cytosolic N-terminus; Gel filtration construct; also called kVSD N-termini; KAT1 N-terminus
B3: gVSD^NP (other)
chain: MGRLRRRQEIIDHEEEESNDDVSSRRGKLSLAKTFRWLKSSKKRRIKTKGKNKYKYIIKPKNRWYKAWEMFILVWAIYSSLFTPMEFGFFRGLPERLFVLDIVGQIAFLVDIVLQFFVAYRDTQTYRTVYKPTRIAFRYLKSHFLMDFIGCFPWDLIYKASGKHELVRYLLWIRLFRVRKVVEFFQRLEKDTRINYLFTRILK
notes: All negatively-charged amino acids (Asp, Glu) of the N-terminal charged domains replaced with Lys
B4: gVSD^PN (other)
chain: MGRLRRRQEIIDHEEEESNDDVSSDDGDLSLAETFDWLDSSEDDDIETDGDNDYDYIIDPKNRWYKAWEMFILVWAIYSSLFTPMEFGFFRGLPERLFVLDIVGQIAFLVDIVLQFFVAYRDTQTYRTVYKPTRIAFRYLKSHFLMDFIGCFPWDLIYKASGKHELVRYLLWIRLFRVRKVVEFFQRLEKDTRINYLFTRILK
notes: All positively-charged residues of the N-terminal charged domains replaced with negatively-charged residues
B5: gVSD^NP N-terminus (soluble) (other)
chain: MGRLRRRQEIIDHEEEESNDDVSSRRGKLSLAKTFRWLKSSKKRRIKTKGKNKYKYIIKPKNRWYKAWE
notes: also called gVSDNP N-termini

What was measured:
[1] = molecular target: T1, KAT1 voltage sensor domain (kVSD); assay: mbSUS, GORK-Cub bait
full-length KAT1 = molecular target: T2, full-length KAT1 (UniProt Q39128 1-677, limits assumed); assay: mbSUS, GORK-Cub bait
T2 construct: whole, on cells; Nub-X prey in mbSUS in yeast

[2] = molecular target: the molecule itself; assay: gel filtration of soluble N-termini (self-association)
[3] = molecular target: B1; assay: rBiFC in vivo, confocal imaging
[4] = molecular target: B1; assay: mbSUS, GORK-Cub bait

Binder: B1
binding result [1]: no binding | binding result (full-length KAT1): no binding

Binder: B2
binding result [2]: no binding

Binder: B3
binding result [3]: no binding

Binder: B4
binding result [4]: no binding

Binder: B5
binding result [2]: no binding
